In publication PMC2943563:

Target: myc-tagged murine CARD11 L225LI (murine) (UniProt Q8CIS0)
Assay: co-IP

## myc-tagged murine CARD11 L225LI (from UniProt Q8CIS0 1-1159) (natural protein)
  fold increase in apparent oligomerization against wild-type CARD11: 3 fold
